# Source: patent publication US20060147922
# Tested on: chk2, endogenous (HEK 293 and MCF-7 cell extracts)
# Sequence (chain, as listed by the source): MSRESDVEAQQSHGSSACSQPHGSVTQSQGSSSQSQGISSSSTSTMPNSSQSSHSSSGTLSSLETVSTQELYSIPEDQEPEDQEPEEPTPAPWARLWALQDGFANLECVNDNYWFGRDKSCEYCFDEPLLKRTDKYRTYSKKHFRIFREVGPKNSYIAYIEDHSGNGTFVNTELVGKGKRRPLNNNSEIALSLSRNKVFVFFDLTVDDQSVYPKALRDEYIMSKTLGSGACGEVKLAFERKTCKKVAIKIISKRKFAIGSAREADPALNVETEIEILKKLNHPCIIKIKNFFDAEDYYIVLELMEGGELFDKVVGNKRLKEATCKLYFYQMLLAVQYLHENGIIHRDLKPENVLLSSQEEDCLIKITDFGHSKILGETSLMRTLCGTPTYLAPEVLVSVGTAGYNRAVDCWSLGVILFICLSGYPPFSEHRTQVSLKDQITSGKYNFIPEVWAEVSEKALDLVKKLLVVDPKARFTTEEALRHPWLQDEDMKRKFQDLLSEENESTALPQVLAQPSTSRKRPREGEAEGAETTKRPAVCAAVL
substance,measurement,value
"EDD protein, full length (aa 1-2799)",CHK2 kinase activity towards a GST-cdc25C substrate post-IR in the presence and absence of EDD,activation of CHK2 was delayed in cells lacking EDD and these cells were impaired in their ability to reach maximal CHK2 kinase activity
same,DNA damage-induced phosphorylation of CHK2 on T68 after EDD depletion by RNA interference,considerably diminished compared to control cells
